Assay results published in the supplement of paper PMC10567573.
± gives the standard deviation.

Assay: protein stability index of a GFP-peptide fusion (GPS, HEK-293T) (PSI 1-6); higher = more stable
[1] = treatment: DMSO, c terminus: native
[2] = treatment: MLN4924 1 uM, 8 h, c terminus: native
[3] = treatment: DMSO, c terminus: a fixed tail appended
[4] = treatment: MLN4924 1 uM, 8 h, c terminus: a fixed tail appended
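Note: 24-mer peptide tiles fused after GFP, lentivirally expressed, FACS-sorted into six equal bins by GFP/DsRed ratio, decoded by Illumina sequencing, PSI is the read-weighted mean bin number.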

| Sequence | protein stability index [1] | protein stability index [2] | protein stability index [3] | protein stability index [4] |
| --- | --- | --- | --- | --- |
| SFSGKVFPFFAVWKKGSCLTLKG [TRIM15] | 3.25 ± 0.88 | 2.92 ± 0.61 |  |  |
| SGSDSGGSSSSSSSSINSPDRASG [FAM104A] |  |  | 5.36 ± 0.33 | 5.47 ± 0.11 |
| SGVVRIWDLRDQSVVRDLKGYPDG [TLE6] |  |  | 3.3 ± 0.31 | 3.42 ± 0.23 |
| SHRVVLRPRGKERHKSGVHQPPQA [LYSMD4] |  |  | 3.91 ± 0.2 | 3.98 ± 0.3 |
| SIPVTELSASGPFESHDLLRKGFS [POMP] |  |  | 3.5 ± 0.25 | 3.39 ± 0.34 |
| SKIPFKILSGHEHAVSTCHFCVDD [WDR88] |  |  | 2.91 ± 0.25 | 3.07 ± 0.26 |
| SKSKEEVSSLISEKTNGATPLLMA [FEM1C] |  |  | 4.26 ± 0.42 | 4.49 ± 0.24 |
| SLFCLEDKELLCCSCQADPRHQGH [TRIM35] |  |  | 3.06 ± 0.16 | 3.35 ± 0.4 |
| SLGVDTLPPPDPNPPRAEFNYSVG [APBB1IP] |  |  | 4.1 ± 0.31 | 4.44 ± 0.22 |
| SLLSLPVWVLMDEDVRIFFYQSPY [NCF4] |  |  | 2.56 ± 0.24 | 2.66 ± 0.47 |
| SLNELMIVIGILSAYISNYAFANV [SLC2A12] |  |  | 3.35 ± 0.31 | 3.18 ± 0.39 |
| SLRENDFIEIELDRQELTYQELLR [ANKRD40] |  |  | 3.37 ± 0.62 | 3.57 ± 0.39 |
| SMALTCTFNRWGTLLAVGCNDGRI [RBBP5] |  |  | 2.48 ± 0.33 | 2.35 ± 0.34 |
| SNLSVENVADTLVLADLHSAEQLK [SPOPL] |  |  | 4.65 ± 0.27 | 4.61 ± 0.19 |
| SNYYVAHPPVTYSQPYPTWLPCN [TENT5C] | 3.25 ± 0.19 | 3.44 ± 0.68 |  |  |
| SPDGALLATASYDTRVYIWDPHNG [WSB1] |  |  | 2.5 ± 0.41 | 2.51 ± 0.6 |
| SPKYKQDVEGAESQLDEDEHGLHT [TRAF3IP2] |  |  | 5.45 ± 0.14 | 5.5 ± 0.27 |
| SPRDLQFSEIRETSAKVNWMPPPS [TNXB] |  |  | 3.73 ± 0.23 | 3.69 ± 0.29 |
| SPSVPCIFCEEHFPVAEQDKLLKH [ZNF277] |  |  | 4.16 ± 0.24 | 4.37 ± 0.084 |
| SQCQMETKPLAIHPCGDKNCPAHW [ADAMTSL2] |  |  | 3.91 ± 0.62 | 4.53 ± 0.31 |
| SQEAADTPDTRHPCSLGSSLVADY [YJU2B] |  |  | 4.34 ± 0.35 | 4.59 ± 0.21 |
| SQHCKPEEGLEARGEALGLVGAQA [MAGEA3] |  |  | 4.73 ± 0.2 | 4.73 ± 0.22 |
| SQRQAKELKLEQQEAAERESKLLR [LRRC45] |  |  | 5.17 ± 0.28 | 5.22 ± 0.1 |

| Sequence | protein stability index [1] | protein stability index [2] | protein stability index [3] | protein stability index [4] |
| --- | --- | --- | --- | --- |
| SRELSLRPSRSGAQQLEEEGPMEE [EID1] |  |  | 5.58 ± 0.29 | 5.64 ± 0.12 |
| SRETECSRVGKQSFIITLGCNSVL [CARM1] |  |  | 2.3 ± 0.66 | 2.09 ± 0.38 |
| SREYKLVMLGAGGVGKSAMTMQFI [RIT1] |  |  | 2.51 ± 0.46 | 2.27 ± 0.42 |
| SRGYRNHRSSRETRDYAPPSRGHA [RBMY1A1] |  |  | 4.63 ± 0.3 | 4.63 ± 0.4 |
| SRILNEMRDQYEQMAEKNRRDAET [KRT16] |  |  | 4.65 ± 0.27 | 4.78 ± 0.27 |
| SRKVTTNKLLLSIIILLELAILGG [VTI1B] |  |  | 2.98 ± 0.7 | 2.84 ± 0.65 |
| SRSRSRSRSNSRSRSYSPRRSRGS [SRSF1] |  |  | 5.37 ± 0.24 | 5.6 ± 0.2 |
| SSALACTLPTLPAKVYVGVKQEIA [NCF4] |  |  | 3.2 ± 0.2 | 3.1 ± 0.35 |
| SSCVKYLIFLSNFPFSLLGLLALA [TSPAN10] |  |  | 2.94 ± 0.35 | 2.93 ± 0.35 |
| SSFPPSPGPSPDVQLATLAQRVKE [AUP1] |  |  | 5.1 ± 0.26 | 5.05 ± 0.15 |
| SSSDSDFDDEEPRKFYVHIKPAPA [FCHO1] |  |  | 4.5 ± 0.27 | 4.45 ± 0.084 |
| SSSRPISPGLSYASHTVGFTPPTS [CCDC6] |  |  | 3.54 ± 0.22 | 3.74 ± 0.15 |
| SSSSSFGSGFGGGYGGGLGAGFGG [KRT16] |  |  | 2.65 ± 0.46 | 2.89 ± 0.3 |
| SSVICNDITAYLFGFFFGRTPLIK [CDS1] |  |  | 2.13 ± 1.2 | 2.02 ± 0.082 |
| STCDTLGMADVGTVCDPARSCAIV [ADAMTS4] |  |  | 3.92 ± 0.34 | 3.69 ± 0.083 |
| STNEITYGLPIMVTLMVAKWTGDF [CLCN6] |  |  | 3.16 ± 0.38 | 3.03 ± 0.45 |
| STRGAARPAQAIGTQPRATKHKCR [SPACA9] |  |  | 5.13 ± 0.098 | 5.14 ± 0.36 |
| STRLTRIHLREDLVQDQDLEAIRK [ZER1] |  |  | 4.67 ± 0.079 | 4.7 ± 0.14 |
| SVHFDGETIEGAPPLWAASAAGHL [FEM1A] |  |  | 3.42 ± 0.07 | 3.47 ± 0.5 |
| SWCLKRYDLEYWAFHDGQRSRLRP [TRIM14] |  |  | 2.18 ± 0.25 | 2.33 ± 0.13 |
| SWSIQMRQHHHQSSFPGSLPQETN |  |  | 3.51 ± 0.1 | 3.53 ± 0.11 |
| SYPRTPHTPGTPKSAILVPSEKKV [MAP2] |  |  | 4.6 ± 0.053 | 4.74 ± 0.26 |
| SYSPASASSGGAGAAVGTGSSYPT [JUNB] |  |  | 4.41 ± 0.27 | 4.61 ± 0.094 |

| Sequence | protein stability index [1] | protein stability index [2] | protein stability index [3] | protein stability index [4] |
| --- | --- | --- | --- | --- |
| SYVCRCKQGYILNSDQTTCRIQDL [MATN2] |  |  | 2.4 ± 0.31 | 2.46 ± 0.42 |
| TAAGGQGGPGGPGSDKQQQQQHIE [NR2F2] |  |  | 5.34 ± 0.27 | 5.47 ± 0.19 |
| TDDPTAGRSNAPITAPTEVEVMDE [CSNK1G3] |  |  | 5.67 ± 0.13 | 5.51 ± 0.22 |
| TDGERVAEVAPEERENVAVAKLQE [SDE2] |  |  | 5.59 ± 0.34 | 5.49 ± 0.38 |
| TEDCPTGSALTFREEQCAAYNHRT [ADAMTS4] |  |  | 5.09 ± 0.22 | 5.03 ± 0.12 |
| TEHEKKQKLETDAMFRLEHGEADR [YJU2B] |  |  | 5.32 ± 0.12 | 5.46 ± 0.3 |
| TELRLLGRTHSACDALRTLAEARR [RSAD1] |  |  | 3.46 ± 0.21 | 3.59 ± 0.18 |
| TEQLWRIFAGVHDEKAKPRDRQQA [TLE6] |  |  | 3.45 ± 0.26 | 3.76 ± 0.23 |
| TFDGSLFAVFPSLNEEQTLQEVPT [ETS2] |  |  | 3.69 ± 0.28 | 3.57 ± 0.18 |
| TFFRLLLPEAPPKKFLTLGSKFRY [EPB41L3] |  |  | 2.23 ± 0.32 | 2.85 ± 1.4 |
| TFPFKILGDSGLGPWQLNVFVCRV [P2RY14] |  |  | 3.47 ± 0.73 | 3.26 ± 1.5 |
| TFSGDVQLAQDDIDGIQAIYGRSQ [MMP1] |  |  | 4.27 ± 0.21 | 4.55 ± 0.14 |
| TFSLKTVLMIAIQLISRMEYVHSK [CSNK1G3] |  |  | 3.5 ± 0.67 | 3.16 ± 0.46 |
| TGEVRTARALLEDDSDTQQVVVLV [PCDHGC5] |  |  | 2.5 ± 0.39 | 2.82 ± 0.27 |
| TGFTVNVAWNGPRMGDADYLAAWH [HDAC6] |  |  | 2.43 ± 0.52 | 2.18 ± 0.26 |
| TGIEESTDGMILGPEDLSYQIYDV [LARP4] |  |  | 3.76 ± 0.28 | 3.6 ± 0.29 |
| TGILIFAIGVGQVDFNTLKSIGSE [MATN2] |  |  | 3.69 ± 0.069 | 3 ± 0.56 |
| TGLVGLFVDFFVRLFTQLKFGVVQ [CLCN6] |  |  | 2.36 ± 0.36 | 2.54 ± 0.22 |
| THLLMGLAGGKLILSLEGGYNLRA [HDAC6] |  |  | 3.08 ± 0.91 | 2.91 ± 1 |
| TIIASNAEEAEILHSACGLSKDHQ [TOR1AIP2] |  |  | 4.48 ± 0.14 | 4.54 ± 0.24 |
| TIILQQLLPLRTKVAKLLGYSTHA [NLN] |  |  | 2.33 ± 0.26 | 1.92 ± 0.39 |
| TIKVSYARPSSASIRDANLYVSGL [ELAVL3] |  |  | 2.37 ± 0.076 | 2.23 ± 0.3 |
| TINIKCHVHDPHGQVIWGMSWAKL [FBXO39] |  |  | 2.84 ± 0.5 | 2.67 ± 0.46 |

| Sequence | protein stability index [1] | protein stability index [2] | protein stability index [3] | protein stability index [4] |
| --- | --- | --- | --- | --- |
| TKFDRDGNRILDEKEQEKMRQDLE [PKD2L1] |  |  | 5.12 ± 0.34 | 5.36 ± 0.35 |
| TKQNFFSQTPILQALQHVQASCDE [INTS3] |  |  | 3.95 ± 0.12 | 4.16 ± 0.23 |
| TLGELKQNLSRSWHDVQVSSAYVK [TPD52L2] |  |  | 2.96 ± 0.23 | 3.26 ± 0.27 |
| TLGKVLKVIVVMRSLFIDRTIVKG [MED27] |  |  | 3.01 ± 0.66 | 2.74 ± 0.97 |
| TLHAVEKLQVRLATKTEPKKLEKY [ELOA2] |  |  | 3.7 ± 0.31 | 3.73 ± 0.41 |
| TLKRGYFQKSLVLISKLPYIHFFH [DENND6A] |  |  | 3.11 ± 0.73 | 2.7 ± 0.3 |
| TLNIKETDSKELSMAKEVIAKELS [ZBED1] |  |  | 3.87 ± 0.086 | 4.13 ± 0.12 |
| TLTSVQLLDCFGIPVLMALSWFIL [SLC35F2] |  |  | 3.03 ± 0.35 | 2.65 ± 0.58 |
| TNRVKECLAKGTFSDVTFILDDGT [RHOBTB2] |  |  | 3.52 ± 0.16 | 3.63 ± 0.18 |
| TNTTSTQMTNIGVYVSNMTDKLVT [IQUB] |  |  | 2.78 ± 0.3 | 2.8 ± 0.34 |
| TPIEVLCENFPEMATYLRYVRRLD [CSNK1G3] |  |  | 2.39 ± 0.3 | 2.6 ± 0.44 |
| TPLHVAAANKAVKCAEVIIPLLSS [ANKRD44] |  |  | 2.44 ± 0.26 | 2.54 ± 0.22 |
| TSAEIELPDVEPAAFLALLRFLYS [BTBD1] |  |  | 2.42 ± 0.25 | 2.34 ± 0.2 |
| TSAVLKAGRQSVSGRKNSTSKDLV [C6orf223] |  |  | 4.26 ± 0.074 | 4.38 ± 0.22 |
| TSCIVIILIIISVIVQIKQPRKKY [NETO1] |  |  | 3.26 ± 0.17 | 3 ± 0.16 |
| TSKDLVTLGASSLREERGHPLHPR [C6orf223] |  |  | 4.26 ± 0.063 | 4.33 ± 0.18 |
| TSPECASPQFEGPLSPPPINYNGI [NEUROD6] |  |  | 4.07 ± 0.15 | 3.91 ± 0.3 |
| TVDSMIPAYATTRIRSQIGNTESE [GDAP1] |  |  | 4.86 ± 0.16 | 4.99 ± 0.076 |
| TVVGLFNVRDRDSGRNGEVSLDIS [PCDHGC5] |  |  | 2.83 ± 0.37 | 3.13 ± 0.19 |
| TVVGVPSGKVSSSSSSLGNKLQTL [ZC2HC1A] |  |  | 3.56 ± 0.34 | 3.73 ± 0.29 |
